No end group written: not given here.
Legend:
GRPR = settings: relative to PD176252 (methoxy group replaced by hydrogen); cited from earlier work
[1] = molecular target: GRPR with alanine mutation of Q120^3.30 (human, UniProt P30550 1-384, alanine mutation of Q120^3.30); test: cell-based or functional assay
[2] = molecular target: GRPR with alanine mutation of C93^2.57 (human, UniProt P30550 1-384, alanine mutation of C93^2.57); test: cell-based or functional assay

GRP-induced calcium mobilization in transfected CHO cells: EC50 against WT-GRPR [1] [fold]	GRP-induced calcium mobilization in transfected CHO cells: EC50 against WT-GRPR [2] [fold]	Molecule	reduction for GRPR binding (GRPR) [fold]
		C[C@@](Cc1c[nH]c2ccccc12)(NC(=O)Nc1ccc([N+](=O)[O-])cc1)C(=O)NCC1(c2ccccn2)CCCCC1 [PD168368]	17
25	12	VPLPAGGGTVLTKMYPRGNHWAVGHLM-NH2 [gastrin-releasing peptide]	
